Data taken from paper doi:10.1101/433839.

Key:
Y118A SsuE = Y118A SsuE (UniProt P80644); assay: other fluorescence titration
[1] = molecular target: wild-type SsuE (NADPH-dependent FMN reductase of the alkanesulfonate monooxygenase system) (UniProt P80644); assay: other fluorescence titration

B1: wild-type SsuD (FMNH2-dependent alkanesulfonate monooxygenase) (enzyme)
chain: MSLNMFWFLPTHGDGHYLGTEEGSRPVDHGYLQQIAQAADRLGYTGVLIPTGRSCEDAWLVAASMIPVTQRLKFLVALRPSVTSPTVAARQAATLDRLSNGRALFNLVTGSDPQELAGDGVFLDHSERYEASAEFTQVWRRLLQRETVDFNGKHIHVRGAKLLFPAIQQPYPPLYFGGSSDVAQELAAEQVDLYLTWGEPPELVKEKIEQVRAKAAAHGRKIRFGIRLHVIVRETNDEAWQAAERLISHLDDETIAKAQAAFARTDSVGQQRMAALHNGKRDNLEISPNLWAGVGLVRGGAGTALVGDGPTVAARINEYAALGIDSFVLSGYPHLEEAYRVGELLFPLLDVAIPEIPQPQPLNPQGEAVANDFIPRKVAQS
- Kd (Y118A SsuE): 0.122 µM
- Kd [1]: 0.04 µM
